Publication PMC12169662, “De Novo-Designed APC/C Inhibitors Provide a Rationale for Targeting RING-Type E3 Ubiquitin Ligases” (Journal of Medicinal Chemistry, 2025)
Bridge positions count the residues as written; N and C are the ends. Square brackets hold non-standard residues; d marks the D form. Ends that are not written are not given here. R8 = C=CCCCCCC[C@@](C)(N)C(=O)O; S5 = C=CCCC[C@](C)(N)C(=O)O

Legend:
[1] = target: T1, recombinant APC/C (anaphase promoting complex/cyclosome) (UniProt Q9NYG5 1-84; Q9UJX6 1-822; Q9H1A4 1-1944; P30260 1-824); test: enzyme kinetics (in vitro APC/C ubiquitination assay); 20 nM recombinant APC/C, 340 nM CDC20, UBA1, UBE2C K119R, ubiquitin; securin titrated from 50 nM to 5 μM with and without H6; initial velocity; 30 °C, 30 mM HEPES pH 7.4, 175 mM NaCl, 8 mM MgCl2; model for noncompetitive inhibition; conditions: both partners purified
T1 sequence (P30260 whole entry, looked up, chain 1 of 4): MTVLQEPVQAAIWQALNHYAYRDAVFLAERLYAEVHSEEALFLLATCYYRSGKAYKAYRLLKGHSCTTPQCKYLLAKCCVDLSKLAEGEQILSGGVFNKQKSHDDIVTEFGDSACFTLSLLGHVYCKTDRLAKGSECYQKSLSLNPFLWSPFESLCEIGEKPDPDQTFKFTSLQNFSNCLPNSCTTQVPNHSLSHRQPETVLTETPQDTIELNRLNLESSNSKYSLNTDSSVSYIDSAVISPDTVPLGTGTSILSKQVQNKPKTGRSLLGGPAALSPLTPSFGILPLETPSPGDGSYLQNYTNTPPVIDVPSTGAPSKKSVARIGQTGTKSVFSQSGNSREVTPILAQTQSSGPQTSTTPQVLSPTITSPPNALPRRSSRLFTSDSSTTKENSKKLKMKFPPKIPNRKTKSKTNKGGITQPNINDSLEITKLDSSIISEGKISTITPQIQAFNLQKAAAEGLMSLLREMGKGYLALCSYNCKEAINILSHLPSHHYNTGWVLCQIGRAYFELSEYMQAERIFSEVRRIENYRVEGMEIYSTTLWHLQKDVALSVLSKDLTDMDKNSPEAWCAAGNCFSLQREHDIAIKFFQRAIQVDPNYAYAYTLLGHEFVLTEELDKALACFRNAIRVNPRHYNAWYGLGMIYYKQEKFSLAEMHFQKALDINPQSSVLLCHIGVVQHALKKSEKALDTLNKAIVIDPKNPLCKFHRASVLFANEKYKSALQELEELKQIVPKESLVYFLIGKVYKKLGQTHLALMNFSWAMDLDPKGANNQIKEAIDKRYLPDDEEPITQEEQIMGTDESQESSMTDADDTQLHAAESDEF
T1 sequence (Q9H1A4 whole entry, looked up, chain 2 of 4): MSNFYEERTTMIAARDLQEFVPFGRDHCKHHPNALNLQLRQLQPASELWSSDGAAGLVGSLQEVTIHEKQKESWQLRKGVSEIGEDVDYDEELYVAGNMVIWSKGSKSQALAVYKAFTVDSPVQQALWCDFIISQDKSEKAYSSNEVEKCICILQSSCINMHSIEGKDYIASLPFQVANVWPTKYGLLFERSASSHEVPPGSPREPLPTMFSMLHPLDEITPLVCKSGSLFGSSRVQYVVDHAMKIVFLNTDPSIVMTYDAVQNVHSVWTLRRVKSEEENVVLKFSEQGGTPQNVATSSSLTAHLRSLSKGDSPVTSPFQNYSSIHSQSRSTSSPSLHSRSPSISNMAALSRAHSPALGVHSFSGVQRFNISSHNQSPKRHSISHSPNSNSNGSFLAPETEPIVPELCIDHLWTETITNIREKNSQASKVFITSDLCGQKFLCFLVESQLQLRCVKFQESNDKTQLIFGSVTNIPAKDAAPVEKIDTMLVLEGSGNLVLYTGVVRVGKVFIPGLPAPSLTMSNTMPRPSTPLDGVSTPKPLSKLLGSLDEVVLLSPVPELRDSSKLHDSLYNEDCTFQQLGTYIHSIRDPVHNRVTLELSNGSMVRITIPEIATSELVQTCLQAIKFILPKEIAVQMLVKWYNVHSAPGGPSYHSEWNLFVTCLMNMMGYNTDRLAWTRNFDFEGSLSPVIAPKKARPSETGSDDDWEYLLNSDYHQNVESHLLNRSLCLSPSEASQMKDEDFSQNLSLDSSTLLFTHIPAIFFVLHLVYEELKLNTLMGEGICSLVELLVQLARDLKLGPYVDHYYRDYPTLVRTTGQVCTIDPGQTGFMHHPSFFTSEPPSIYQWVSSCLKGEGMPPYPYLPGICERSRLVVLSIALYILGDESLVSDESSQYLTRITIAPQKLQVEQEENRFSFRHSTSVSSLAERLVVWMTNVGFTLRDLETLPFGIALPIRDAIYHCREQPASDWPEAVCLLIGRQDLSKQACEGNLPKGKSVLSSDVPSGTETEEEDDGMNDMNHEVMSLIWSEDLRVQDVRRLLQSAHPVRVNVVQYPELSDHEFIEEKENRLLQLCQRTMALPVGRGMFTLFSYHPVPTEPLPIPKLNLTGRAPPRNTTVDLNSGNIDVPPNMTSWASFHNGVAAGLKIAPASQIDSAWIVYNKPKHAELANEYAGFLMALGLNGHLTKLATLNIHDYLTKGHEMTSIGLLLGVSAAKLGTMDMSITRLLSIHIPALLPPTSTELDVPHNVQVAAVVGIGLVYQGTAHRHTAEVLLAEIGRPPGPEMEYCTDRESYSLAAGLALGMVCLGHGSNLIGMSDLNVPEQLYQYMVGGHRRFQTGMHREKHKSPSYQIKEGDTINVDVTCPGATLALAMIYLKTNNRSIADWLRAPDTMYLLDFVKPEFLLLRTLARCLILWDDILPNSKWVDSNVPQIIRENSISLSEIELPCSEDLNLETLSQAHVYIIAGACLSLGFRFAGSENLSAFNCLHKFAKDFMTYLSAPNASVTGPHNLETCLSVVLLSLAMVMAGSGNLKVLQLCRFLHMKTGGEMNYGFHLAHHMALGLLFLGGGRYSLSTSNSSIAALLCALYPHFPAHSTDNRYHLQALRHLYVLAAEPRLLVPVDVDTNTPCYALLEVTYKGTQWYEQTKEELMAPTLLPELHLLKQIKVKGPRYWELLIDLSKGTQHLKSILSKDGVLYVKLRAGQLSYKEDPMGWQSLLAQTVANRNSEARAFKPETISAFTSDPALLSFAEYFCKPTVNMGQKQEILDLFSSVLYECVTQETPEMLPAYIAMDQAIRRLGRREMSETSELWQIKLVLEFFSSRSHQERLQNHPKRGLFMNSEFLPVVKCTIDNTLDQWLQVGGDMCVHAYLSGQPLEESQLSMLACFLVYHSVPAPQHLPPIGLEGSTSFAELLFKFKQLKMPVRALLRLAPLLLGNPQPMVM
T1 sequence (Q9UJX6 whole entry, looked up, chain 3 of 4): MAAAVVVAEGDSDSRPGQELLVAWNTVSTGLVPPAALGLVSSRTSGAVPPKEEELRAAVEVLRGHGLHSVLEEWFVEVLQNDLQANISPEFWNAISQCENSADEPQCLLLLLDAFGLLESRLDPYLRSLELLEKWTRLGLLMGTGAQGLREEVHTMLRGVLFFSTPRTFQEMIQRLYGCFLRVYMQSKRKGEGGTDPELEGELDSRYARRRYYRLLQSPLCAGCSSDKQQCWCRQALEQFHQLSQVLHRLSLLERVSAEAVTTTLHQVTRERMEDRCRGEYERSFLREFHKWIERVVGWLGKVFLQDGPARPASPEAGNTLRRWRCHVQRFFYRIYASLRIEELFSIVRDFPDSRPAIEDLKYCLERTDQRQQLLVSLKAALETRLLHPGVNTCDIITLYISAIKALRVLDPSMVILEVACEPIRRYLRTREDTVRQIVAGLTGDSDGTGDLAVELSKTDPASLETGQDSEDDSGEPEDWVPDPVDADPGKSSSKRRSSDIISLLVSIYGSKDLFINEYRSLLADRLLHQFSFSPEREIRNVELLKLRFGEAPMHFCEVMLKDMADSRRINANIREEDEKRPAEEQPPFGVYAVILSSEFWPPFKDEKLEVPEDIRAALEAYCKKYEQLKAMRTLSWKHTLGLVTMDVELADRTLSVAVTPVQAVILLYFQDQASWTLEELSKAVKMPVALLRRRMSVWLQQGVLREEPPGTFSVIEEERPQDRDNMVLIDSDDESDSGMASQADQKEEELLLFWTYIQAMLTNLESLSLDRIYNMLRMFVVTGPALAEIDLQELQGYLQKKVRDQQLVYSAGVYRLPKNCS
T1 sequence (Q9NYG5 whole entry, looked up, chain 4 of 4): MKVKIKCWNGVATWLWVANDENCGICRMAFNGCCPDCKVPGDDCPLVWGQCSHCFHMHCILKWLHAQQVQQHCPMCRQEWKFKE

[2] = target: T1, recombinant APC/C (anaphase promoting …); test: cell-based or functional assay

Ki [1]: 5.03 ± 0.79 µM
IC50 of in vitro APC/C ubiquitination of the substrate, H6 titrated from 0.01 to 100 μM; blocks E2 recruitment to the RING domain of APC/C [2]: 1.96 µM
B1: H6 (designed binder)
chain: EWW[R8]IKEIQR[S5]RRA
modifications: staple 4-11
